Assay results from patent publication US20260242478A1 (published 2026).
Where no end group is shown, it is not given here.

Tests used:
PSMA Fab [1] = target: T1, PSMA Fab; assay: clonal phage ELISA; biotinylated PSMA Fab on neutravidin plate, blocking buffer alone; anti-M13 HRP detection;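 note: crude clonal phage supernatants added without washing to wells pretreated with blocking buffer with or without PSMA antigen, short incubation, then washed before detecting bound phage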
T1 construct: also called Anti-PSMA Fab; 006 PSMA Fab
Description: (§1) Clonal phage were harvested as crude supernatants and screened via standard ELISAs. […] Prior to the addition of clonal phage. wells were incubated with blocking buffer and PSMA antigen or blocking buffer alone. Without washing or aspirating, clonal phage supernatants were then added to the wells and incubated for a short time. Wells were then washed followed by detection of bound phage using a horse radish conjugated anti-M13 antibody.

PSMA Fab [2] = target: T1, PSMA Fab; assay: clonal phage ELISA; biotinylated PSMA Fab on neutravidin plate, pre-incubated with PSMA antigen as competitor; anti-M13 HRP detection
Description: as §1

PSMA Fab (006 PSMA Fab) [3] = target: T2, PSMA Fab (006 PSMA Fab) (Fab biotinylated for capture on neutravidin plates (site not given)); assay: clonal phage ELISA; biotinylated PSMA Fab on neutravidin plate, blocking buffer alone; anti-M13-HRP detection;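 note: clonal phage applied as crude supernatants to wells preincubated with blocking buffer, binding read by ELISA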
T2 construct: also called Anti-PSMA Fab; anti-PSMA Fab

PSMA Fab (006 PSMA Fab) [4] = target: T2, PSMA Fab (006 PSMA Fab); assay: clonal phage ELISA; biotinylated PSMA Fab on neutravidin plate, wells pre-incubated with PSMA antigen as competitor; anti-M13-HRP detection
Description: as §1

PSMA Fab (006 PSMA Fab) [5] = target: T3, PSMA Fab (006 PSMA Fab) (biotinylated (site not stated)); assay: clonal phage ELISA on captured anti-PSMA Fab pre-incubated with PSMA antigen (competitor: PSMA)
T3 construct: That the same Fab was used in the panning ELISA is inferred; also called Anti-PSMA Fab; anti-PSMA Fab

PSMA Fab (006 PSMA Fab) [6] = target: T3, PSMA Fab (006 PSMA Fab); assay: clonal phage ELISA on biotinylated anti-PSMA Fab captured on neutravidin, anti-M13-HRP detection
Description: as §1

Binder | Phage binding ELISA signal, Anti-PSMA Fab (PSMA Fab [1]) | Phage binding ELISA signal, Anti-PSMA Fab with PSMA antigen (PSMA Fab [2]) | phage binding ELISA signal in the presence of PSMA (PSMA Fab (006 PSMA Fab) [5]) | phage binding ELISA signal (PSMA Fab (006 PSMA Fab) [6]) | also measured
DFVRCVPDWMCQGF [Phage-3414] | 1.79 | 0.0627 | – | – | –
HIMQCKPAWMCSGL (also called Peptide-180 library clone; not shown: pIII filament protein of the bacteriophage) [Phage-3456] | – | – | – | – | Phage binding ELISA signal, Anti-PSMA Fab (PSMA Fab (006 PSMA Fab) [3]): 1.74; Phage binding ELISA signal, Anti-PSMA Fab in presence of PSMA antigen (PSMA Fab (006 PSMA Fab) [4]): 0.0654
EDVRCVPAWMCNGF (cysteine pairing not given here; also: fused to pIII of bacteriophage, also called Peptide-180 library clone; not shown: pIII filament protein of the bacteriophage) [Phage-3449] | – | – | – | – | Phage binding ELISA signal, Anti-PSMA Fab (PSMA Fab (006 PSMA Fab) [3]): 1.75; Phage binding ELISA signal, Anti-PSMA Fab in presence of PSMA antigen (PSMA Fab (006 PSMA Fab) [4]): 0.0724
GDHYCKPDWMCSGF [Phage-3408] | 1.79 | 0.071 | – | – | –
IDQICKPAWMCSGF (Peptide-180 library clone, tested as clonal phage supernatant; not shown: fused to the pIII filament protein of the bacteriophage) [Phage-3424] | – | – | 0.0628 | 1.78 | –
SSMLCIPTWMCGGF (Peptide-180 library clone, tested as clonal phage supernatant; not shown: fused to the pIII filament protein of the bacteriophage) [Phage-3427] | – | – | 0.0536 | 1.77 | –
LSTLCIPQWMCTGL (Peptide-180 library clone, tested as clonal phage supernatant; not shown: fused to the pIII filament protein of the bacteriophage) [Phage-3422] | – | – | 0.0813 | 1.78 | –
MTPRCIPSWMCFGM (Peptide-180 library clone, tested as clonal phage supernatant; not shown: fused to the pIII filament protein of the bacteriophage) [Phage-3426] | – | – | 0.086 | 1.77 | –
AQGVCIPQWMCDGF (cysteine pairing not given here; also: fused to pIII of bacteriophage) [Phage-3406] | 1.79 | 0.0715 | – | – | –
TSLRCVPEWMCSGF (Peptide-180 library clone, tested as clonal phage supernatant; not shown: fused to the pIII filament protein of the bacteriophage) [Phage-3428] | – | – | 0.0814 | 1.77 | –
SEILCRPAWMCTGF [Phage-3407] | 1.79 | 0.104 | – | – | –
MLPYCVPQWMCMGF [Phage-3419] | 1.78 | 0.147 | – | – | –
YFQMCAPRWMCEGF (cysteine pairing not given here; also: fused to pIII of bacteriophage, Peptide-180 library clone, tested as clonal phage supernatant; not shown: fused to the pIII filament protein of the bacteriophage) [Phage-3423] | – | – | 0.0849 | 1.78 | –
SPPLCVPVWMCHGF (also called Peptide-180 library clone; not shown: pIII filament protein of the bacteriophage) [Phage-3459] | – | – | – | – | Phage binding ELISA signal, Anti-PSMA Fab (PSMA Fab (006 PSMA Fab) [3]): 1.74; Phage binding ELISA signal, Anti-PSMA Fab in presence of PSMA antigen (PSMA Fab (006 PSMA Fab) [4]): 0.148
TDPLCIPEWMCQGM (Peptide-180 library clone, tested as clonal phage supernatant; not shown: fused to the pIII filament protein of the bacteriophage) [Phage-3421] | – | – | 0.0726 | 1.78 | –
VVAQCVPRWMCDGF (also called Peptide-180 library clone; not shown: pIII filament protein of the bacteriophage) [Phage-3458] | – | – | – | – | Phage binding ELISA signal, Anti-PSMA Fab (PSMA Fab (006 PSMA Fab) [3]): 1.74; Phage binding ELISA signal, Anti-PSMA Fab in presence of PSMA antigen (PSMA Fab (006 PSMA Fab) [4]): 0.103
FEFRCTPEWMCRGF (also called Peptide-180 library clone; not shown: pIII filament protein of the bacteriophage) [Phage-3453] | – | – | – | – | Phage binding ELISA signal, Anti-PSMA Fab (PSMA Fab (006 PSMA Fab) [3]): 1.74; Phage binding ELISA signal, Anti-PSMA Fab in presence of PSMA antigen (PSMA Fab (006 PSMA Fab) [4]): 0.0706
LEIMCRPEWMCSGF (Peptide-180 library clone, tested as clonal phage supernatant; not shown: fused to the pIII filament protein of the bacteriophage) [Phage-3425] | – | – | 0.0888 | 1.77 | –
VEPLCRPMWMCEGI [Phage-3410] | 1.79 | 0.122 | – | – | –
TINICKPQWMCIGF (also called Peptide-180 library clone; not shown: pIII filament protein of the bacteriophage) [Phage-3451] | – | – | – | – | Phage binding ELISA signal, Anti-PSMA Fab (PSMA Fab (006 PSMA Fab) [3]): 1.74; Phage binding ELISA signal, Anti-PSMA Fab in presence of PSMA antigen (PSMA Fab (006 PSMA Fab) [4]): 0.0893

Binder | Phage binding ELISA signal, Anti-PSMA Fab (PSMA Fab [1]) | Phage binding ELISA signal, Anti-PSMA Fab with PSMA antigen (PSMA Fab [2]) | phage binding ELISA signal in the presence of PSMA (PSMA Fab (006 PSMA Fab) [5]) | phage binding ELISA signal (PSMA Fab (006 PSMA Fab) [6]) | also measured
SVKVCKPAWMCAGF (cysteine pairing not given here; also: fused to pIII of bacteriophage) [Phage-3413] | 1.79 | 0.102 | – | – | –
VERACRPVWMCQGF [Phage-3417] | 1.78 | 0.0907 | – | – | –
DTFMCRPSWMCNGF [Phage-3409] | 1.79 | 0.072 | – | – | –
SLAQCVPEWMCFGF [Phage-3411] | 1.79 | 0.113 | – | – | –
METWCVPTWMCTGF [Phage-3415] | 1.79 | 0.0748 | – | – | –
SLPICKPEWMCVGL (Peptide-180 library clone, tested as clonal phage supernatant; not shown: fused to the pIII filament protein of the bacteriophage) [Phage-3429] | – | – | 0.0892 | 1.77 | –
MERFCIPSWMCEGL (also called Peptide-180 library clone; not shown: pIII filament protein of the bacteriophage) [Phage-3452] | – | – | – | – | Phage binding ELISA signal, Anti-PSMA Fab (PSMA Fab (006 PSMA Fab) [3]): 1.74; Phage binding ELISA signal, Anti-PSMA Fab in presence of PSMA antigen (PSMA Fab (006 PSMA Fab) [4]): 0.0682
VEKMCRPLWMCHGF (also called Peptide-180 library clone; not shown: pIII filament protein of the bacteriophage) [Phage-3457] | – | – | – | – | Phage binding ELISA signal, Anti-PSMA Fab (PSMA Fab (006 PSMA Fab) [3]): 1.74; Phage binding ELISA signal, Anti-PSMA Fab in presence of PSMA antigen (PSMA Fab (006 PSMA Fab) [4]): 0.0944
IEPHCVPAWMCTGF (Peptide-180 library clone, tested as clonal phage supernatant; not shown: fused to the pIII filament protein of the bacteriophage) [Phage-3433] | – | – | 0.0805 | 1.76 | –
ELVRCIPVWMCQGF [Phage-3412] | 1.79 | 0.368 | – | – | –
DTWICKPEWMCMGF [Phage-3416] | 1.78 | 0.0802 | – | – | –
NDVKCIPEWMCVGF (Peptide-180 library clone, tested as clonal phage supernatant; not shown: fused to the pIII filament protein of the bacteriophage) [Phage-3420] | – | – | 0.0849 | 1.78 | –
VTMRCTPDWMCVGF (also called Peptide-180 library clone; not shown: pIII filament protein of the bacteriophage) [Phage-3454] | – | – | – | – | Phage binding ELISA signal, Anti-PSMA Fab (PSMA Fab (006 PSMA Fab) [3]): 1.74; Phage binding ELISA signal, Anti-PSMA Fab in presence of PSMA antigen (PSMA Fab (006 PSMA Fab) [4]): 0.0737
IMPTCVPQWMCNGF [Phage-3418] | 1.78 | 0.093 | – | – | –
VEKMCKPVWMCNGF (Peptide-180 library clone, tested as clonal phage supernatant; not shown: fused to the pIII filament protein of the bacteriophage) [Phage-3430] | – | – | 0.115 | 1.77 | –
EDILCKPVWMCIGF (Peptide-180 library clone, tested as clonal phage supernatant; not shown: fused to the pIII filament protein of the bacteriophage) [Phage-3431] | – | – | 0.06 | 1.77 | –
PLKLCIPEWMCVEL (also called Peptide-180 library clone; not shown: pIII filament protein of the bacteriophage) [Phage-3450] | – | – | – | – | Phage binding ELISA signal, Anti-PSMA Fab (PSMA Fab (006 PSMA Fab) [3]): 1.75; Phage binding ELISA signal, Anti-PSMA Fab in presence of PSMA antigen (PSMA Fab (006 PSMA Fab) [4]): 0.0747
SFLRCEPMWMCLGF (Peptide-180 library clone, tested as clonal phage supernatant; not shown: fused to the pIII filament protein of the bacteriophage) [Phage-3432] | – | – | 0.0816 | 1.77 | –
IEALCVPDWMCRGF (also called Peptide-180 library clone; not shown: pIII filament protein of the bacteriophage) [Phage-3455] | – | – | – | – | Phage binding ELISA signal, Anti-PSMA Fab (PSMA Fab (006 PSMA Fab) [3]): 1.74; Phage binding ELISA signal, Anti-PSMA Fab in presence of PSMA antigen (PSMA Fab (006 PSMA Fab) [4]): 0.0663
